Source: patent US20250230235A1 (NOVELTY NOBILITY, published 2025)

Molecular target: human c-Kit (wild type) on the cell surface of LAD2 cells (human, UniProt P10721 26-976)
Assay: cell-based or functional assay

Sequence of human c-Kit (wild type) on the cell surface of LAD2 cells (P10721 26-976): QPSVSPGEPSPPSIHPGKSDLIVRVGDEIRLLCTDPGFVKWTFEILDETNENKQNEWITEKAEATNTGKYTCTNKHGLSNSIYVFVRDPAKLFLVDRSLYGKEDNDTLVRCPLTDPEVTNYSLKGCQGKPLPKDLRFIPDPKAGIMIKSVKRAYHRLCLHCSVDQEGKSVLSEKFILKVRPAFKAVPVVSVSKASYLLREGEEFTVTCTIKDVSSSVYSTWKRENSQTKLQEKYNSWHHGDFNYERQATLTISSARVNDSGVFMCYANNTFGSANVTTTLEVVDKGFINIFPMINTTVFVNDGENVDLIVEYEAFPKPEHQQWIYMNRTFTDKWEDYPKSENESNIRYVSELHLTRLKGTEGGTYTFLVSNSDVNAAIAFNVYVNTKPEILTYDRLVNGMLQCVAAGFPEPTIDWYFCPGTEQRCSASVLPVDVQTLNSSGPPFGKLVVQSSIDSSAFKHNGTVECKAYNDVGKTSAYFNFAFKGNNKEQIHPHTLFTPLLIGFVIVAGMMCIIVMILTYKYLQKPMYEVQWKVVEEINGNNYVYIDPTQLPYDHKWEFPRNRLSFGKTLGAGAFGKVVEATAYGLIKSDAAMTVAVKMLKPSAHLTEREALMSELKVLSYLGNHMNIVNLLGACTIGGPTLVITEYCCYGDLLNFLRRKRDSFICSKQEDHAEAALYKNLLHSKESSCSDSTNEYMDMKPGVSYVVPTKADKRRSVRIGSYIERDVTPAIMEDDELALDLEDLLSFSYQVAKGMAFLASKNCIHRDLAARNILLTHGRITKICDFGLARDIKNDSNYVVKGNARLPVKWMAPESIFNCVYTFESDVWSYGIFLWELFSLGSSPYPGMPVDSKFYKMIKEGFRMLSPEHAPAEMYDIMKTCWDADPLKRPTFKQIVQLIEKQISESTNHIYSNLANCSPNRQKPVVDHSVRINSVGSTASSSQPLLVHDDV

B1: 2G4 antibody (antibody, human IgG1, kappa, V domains shown)
VH: QVQLVESGGGVVQPGRSLRLSCAASGFTFSRYGMHWVRQAPGKGLEWVAVIWYDGTNKDYTDSVRGRFTISRDNSKNTLYLQMNSLRAEDTAVYYCAREDWAEAFDMWGQGTTVTVSS
VL: not shown
IC50 of degranulation (β-hexosaminidase release) increased by SCF and streptavidin in IgE-sensitized LAD2 cells: 0.00636 µg/mL | half-maximal inhibitory concentration (IC50) of SCF-mediated proliferation of LAD2 cells: 0.058 µg/mL
